Experimental data reported in patent US9993529B2, “Stable formulations of a hyaluronan-degrading enzyme” (Halozyme, Inc., priority 2011, dated 2018).

Assay: RP-HPLC insulin percent purity
Format: physicochemical
Protocol: Apparent solubility was measured as the percent insulin recovery as compared to the initial formulations/conditions.
To determine the apparent solubility, the peak area of insulin/insulin analog main peak and desamido peak were integrated and combined together to calculate the percentage relative to the standards. […] The data were processed using Design-Expert® 7.0 (StatEase) and the “historical data” feature. Insulin percent purity was expressed as the percent of main insulin versus all insulin species.

## Regular Insulin: mature human insulin, SEQ ID NOS: 103 and 104
50 mM NaCl, pH 7.0, 0 months at 2-8° C.
  Percent of insulin main peak: 97.64%
50 mM NaCl, pH 7.0, 0.25 months at 2-8° C.
  Percent of insulin main peak: 97.59%
50 mM NaCl, pH 7.0, 0.5 months at 2-8° C.
  Percent of insulin main peak: 97.50%
50 mM NaCl, pH 7.0, 1 month at 2-8° C.
  Percent of insulin main peak: 97.44%
50 mM NaCl, pH 7.0, 3 months at 2-8° C.
  Percent of insulin main peak: 97.24%
50 mM NaCl, pH 7.0, 5 months at 2-8° C.
  Percent of insulin main peak: 97.73%
50 mM NaCl, pH 7.0, 9 months at 2-8° C.
  Percent of insulin main peak: 97.20%
50 mM NaCl, pH 7.2, 0 months at 2-8° C.
  Percent of insulin main peak: 97.64%
50 mM NaCl, pH 7.2, 0.25 months at 2-8° C.
  Percent of insulin main peak: 97.59%
50 mM NaCl, pH 7.2, 0.5 months at 2-8° C.
  Percent of insulin main peak: 97.56%
50 mM NaCl, pH 7.2, 1 month at 2-8° C.
  Percent of insulin main peak: 97.46%
50 mM NaCl, pH 7.2, 3 months at 2-8° C.
  Percent of insulin main peak: 97.47%
50 mM NaCl, pH 7.2, 5 months at 2-8° C.
  Percent of insulin main peak: 97.75%
50 mM NaCl, pH 7.2, 9 months at 2-8° C.
  Percent of insulin main peak: 97.27%
50 mM NaCl, pH 7.4, 0 months at 2-8° C.
  Percent of insulin main peak: 97.58%
50 mM NaCl, pH 7.4, 0.25 months at 2-8° C.
  Percent of insulin main peak: 97.54%
50 mM NaCl, pH 7.4, 0.5 months at 2-8° C.
  Percent of insulin main peak: 97.48%
50 mM NaCl, pH 7.4, 1 month at 2-8° C.
  Percent of insulin main peak: 97.47%
50 mM NaCl, pH 7.4, 3 months at 2-8° C.
  Percent of insulin main peak: 97.45%
50 mM NaCl, pH 7.4, 5 months at 2-8° C.
  Percent of insulin main peak: 97.74%
50 mM NaCl, pH 7.4, 9 months at 2-8° C.
  Percent of insulin main peak: 97.27%
50 mM NaCl, pH 7.6, 0 months at 2-8° C.
  Percent of insulin main peak: 97.65%
50 mM NaCl, pH 7.6, 0.25 months at 2-8° C.
  Percent of insulin main peak: 97.58%
50 mM NaCl, pH 7.6, 0.5 months at 2-8° C.
  Percent of insulin main peak: 97.33%
50 mM NaCl, pH 7.6, 1 month at 2-8° C.
  Percent of insulin main peak: 97.44%
50 mM NaCl, pH 7.6, 3 months at 2-8° C.
  Percent of insulin main peak: 97.35%
50 mM NaCl, pH 7.6, 5 months at 2-8° C.
  Percent of insulin main peak: 97.66%
50 mM NaCl, pH 7.6, 9 months at 2-8° C.
  Percent of insulin main peak: 97.34%
80 mM NaCl, pH 7.0, 0 months at 2-8° C.
  Percent of insulin main peak: 97.65%
80 mM NaCl, pH 7.0, 0.25 months at 2-8° C.
  Percent of insulin main peak: 97.50%
80 mM NaCl, pH 7.0, 0.5 months at 2-8° C.
  Percent of insulin main peak: 97.30%
80 mM NaCl, pH 7.0, 1 month at 2-8° C.
  Percent of insulin main peak: 97.20%
80 mM NaCl, pH 7.0, 5 months at 2-8° C.
  Percent of insulin main peak: 97.81%
80 mM NaCl, pH 7.0, 9 months at 2-8° C.
  Percent of insulin main peak: 96.18%
80 mM NaCl, pH 7.2, 0 months at 2-8° C.
  Percent of insulin main peak: 97.57%
80 mM NaCl, pH 7.2, 0.25 months at 2-8° C.
  Percent of insulin main peak: 97.59%
80 mM NaCl, pH 7.2, 0.5 months at 2-8° C.
  Percent of insulin main peak: 97.30%
80 mM NaCl, pH 7.2, 1 month at 2-8° C.
  Percent of insulin main peak: 97.45%
80 mM NaCl, pH 7.2, 3 months at 2-8° C.
  Percent of insulin main peak: 97.34%
80 mM NaCl, pH 7.2, 5 months at 2-8° C.
  Percent of insulin main peak: 97.64%
80 mM NaCl, pH 7.4, 0 months at 2-8° C.
  Percent of insulin main peak: 97.56%
80 mM NaCl, pH 7.4, 0.25 months at 2-8° C.
  Percent of insulin main peak: 97.61%
80 mM NaCl, pH 7.4, 0.5 months at 2-8° C.
  Percent of insulin main peak: 97.51%
80 mM NaCl, pH 7.4, 1 month at 2-8° C.
  Percent of insulin main peak: 97.43%
80 mM NaCl, pH 7.4, 3 months at 2-8° C.
  Percent of insulin main peak: 97.43%
80 mM NaCl, pH 7.4, 5 months at 2-8° C.
  Percent of insulin main peak: 97.75%
80 mM NaCl, pH 7.4, 9 months at 2-8° C.
  Percent of insulin main peak: 97.29%
80 mM NaCl, pH 7.6, 0 months at 2-8° C.
  Percent of insulin main peak: 97.63%
80 mM NaCl, pH 7.6, 0.25 months at 2-8° C.
  Percent of insulin main peak: 97.62%
80 mM NaCl, pH 7.6, 0.5 months at 2-8° C.
  Percent of insulin main peak: 97.52%
80 mM NaCl, pH 7.6, 1 month at 2-8° C.
  Percent of insulin main peak: 97.37%
80 mM NaCl, pH 7.6, 3 months at 2-8° C.
  Percent of insulin main peak: 97.64%
80 mM NaCl, pH 7.6, 5 months at 2-8° C.
  Percent of insulin main peak: 97.67%
80 mM NaCl, pH 7.6, 9 months at 2-8° C.
  Percent of insulin main peak: 97.31%
110 mM NaCl, pH 7.0, 0 months at 2-8° C.
  Percent of insulin main peak: 97.64%
110 mM NaCl, pH 7.0, 0.25 months at 2-8° C.
  Percent of insulin main peak: 97.31%
110 mM NaCl, pH 7.0, 0.5 months at 2-8° C.
  Percent of insulin main peak: 97.57%
110 mM NaCl, pH 7.0, 1 month at 2-8° C.
  Percent of insulin main peak: 96.64%
110 mM NaCl, pH 7.0, 3 months at 2-8° C.
  Percent of insulin main peak: 96.10%
110 mM NaCl, pH 7.0, 5 months at 2-8° C.
  Percent of insulin main peak: 97.79%
110 mM NaCl, pH 7.2, 0 months at 2-8° C.
  Percent of insulin main peak: 97.62%
110 mM NaCl, pH 7.2, 0.25 months at 2-8° C.
  Percent of insulin main peak: 97.46%
110 mM NaCl, pH 7.2, 0.5 months at 2-8° C.
  Percent of insulin main peak: 97.35%
110 mM NaCl, pH 7.2, 3 months at 2-8° C.
  Percent of insulin main peak: 97.49%
110 mM NaCl, pH 7.2, 5 months at 2-8° C.
  Percent of insulin main peak: 97.61%
110 mM NaCl, pH 7.2, 9 months at 2-8° C.
  Percent of insulin main peak: 95.91%
110 mM NaCl, pH 7.4, 0 months at 2-8° C.
  Percent of insulin main peak: 97.65%
110 mM NaCl, pH 7.4, 0.25 months at 2-8° C.
  Percent of insulin main peak: 97.58%
110 mM NaCl, pH 7.4, 0.5 months at 2-8° C.
  Percent of insulin main peak: 97.39%
110 mM NaCl, pH 7.4, 1 month at 2-8° C.
  Percent of insulin main peak: 97.36%
110 mM NaCl, pH 7.4, 3 months at 2-8° C.
  Percent of insulin main peak: 97.36%
110 mM NaCl, pH 7.4, 5 months at 2-8° C.
  Percent of insulin main peak: 97.79%
110 mM NaCl, pH 7.4, 9 months at 2-8° C.
  Percent of insulin main peak: 96.91%
110 mM NaCl, pH 7.6, 0 months at 2-8° C.
  Percent of insulin main peak: 97.58%
110 mM NaCl, pH 7.6, 0.25 months at 2-8° C.
  Percent of insulin main peak: 97.57%
110 mM NaCl, pH 7.6, 0.5 months at 2-8° C.
  Percent of insulin main peak: 97.60%
110 mM NaCl, pH 7.6, 1 month at 2-8° C.
  Percent of insulin main peak: 97.52%
110 mM NaCl, pH 7.6, 3 months at 2-8° C.
  Percent of insulin main peak: 97.42%
110 mM NaCl, pH 7.6, 5 months at 2-8° C.
  Percent of insulin main peak: 97.61%
110 mM NaCl, pH 7.6, 9 months at 2-8° C.
  Percent of insulin main peak: 97.31%
140 mM NaCl, pH 7.0, 0 months at 2-8° C.
  Percent of insulin main peak: 97.65%
140 mM NaCl, pH 7.0, 0.25 months at 2-8° C.
  Percent of insulin main peak: 97.15%
140 mM NaCl, pH 7.0, 1 month at 2-8° C.
  Percent of insulin main peak: 96.39%
140 mM NaCl, pH 7.0, 3 months at 2-8° C.
  Percent of insulin main peak: 96.16%
140 mM NaCl, pH 7.0, 9 months at 2-8° C.
  Percent of insulin main peak: 95.17%
140 mM NaCl, pH 7.2, 0 months at 2-8° C.
  Percent of insulin main peak: 97.56%
140 mM NaCl, pH 7.2, 0.25 months at 2-8° C.
  Percent of insulin main peak: 97.37%
140 mM NaCl, pH 7.2, 1 month at 2-8° C.
  Percent of insulin main peak: 96.62%
140 mM NaCl, pH 7.2, 3 months at 2-8° C.
  Percent of insulin main peak: 96.60%
140 mM NaCl, pH 7.2, 9 months at 2-8° C.
  Percent of insulin main peak: 95.49%
140 mM NaCl, pH 7.4, 0 months at 2-8° C.
  Percent of insulin main peak: 97.64%
140 mM NaCl, pH 7.4, 0.25 months at 2-8° C.
  Percent of insulin main peak: 97.57%
140 mM NaCl, pH 7.4, 0.5 months at 2-8° C.
  Percent of insulin main peak: 97.33%
140 mM NaCl, pH 7.4, 1 month at 2-8° C.
  Percent of insulin main peak: 97.23%
140 mM NaCl, pH 7.4, 3 months at 2-8° C.
  Percent of insulin main peak: 97.38%
140 mM NaCl, pH 7.4, 5 months at 2-8° C.
  Percent of insulin main peak: 97.73%
140 mM NaCl, pH 7.4, 9 months at 2-8° C.
  Percent of insulin main peak: 96.10%
140 mM NaCl, pH 7.6, 0 months at 2-8° C.
  Percent of insulin main peak: 97.64%
140 mM NaCl, pH 7.6, 0.25 months at 2-8° C.
  Percent of insulin main peak: 97.61%
140 mM NaCl, pH 7.6, 0.5 months at 2-8° C.
  Percent of insulin main peak: 97.41%
140 mM NaCl, pH 7.6, 1 month at 2-8° C.
  Percent of insulin main peak: 97.51%
140 mM NaCl, pH 7.6, 3 months at 2-8° C.
  Percent of insulin main peak: 97.35%
140 mM NaCl, pH 7.6, 5 months at 2-8° C.
  Percent of insulin main peak: 97.56%
140 mM NaCl, pH 7.6, 9 months at 2-8° C.
  Percent of insulin main peak: 97.07%
Regular insulin/rHuPH20, long term storage at 2-8° C.
  insulin main peak percentage: about 97%
